Tests used:
Experiment in all cases: soluble point mutant tested for binding to mAb1; method not named
[1] = target: T1, human CD137 point mutant K114N, soluble protein (human, UniProt Q07011 24-186)
T1 construct: Printed as 'All 4 mutations tested at K114 (R, E, N, T)'; It was expressed as a soluble protein

[2] = target: T2, human CD137 point mutant K114R, soluble protein (human, UniProt Q07011 24-186)
T2 construct: Printed as 'All 4 mutations tested at K114 (R, E, N, T)'; It was isolated from the extracellular-domain library and expressed as a soluble protein

[3] = target: T3, human CD137 point mutant K114T, soluble protein (human, UniProt Q07011 24-186)
T3 construct: Printed as 'All 4 mutations tested at K114 (R, E, N, T)'; It was expressed as a soluble protein

[4] = target: T4, human CD137 point mutant K114E, soluble protein (human, UniProt Q07011 24-186)
T4 construct: Printed as 'All 4 mutations tested at K114 (R, E, N, T)'; It was expressed as a soluble protein
T4 sequence (Q07011 24-186 K114E limits assumed): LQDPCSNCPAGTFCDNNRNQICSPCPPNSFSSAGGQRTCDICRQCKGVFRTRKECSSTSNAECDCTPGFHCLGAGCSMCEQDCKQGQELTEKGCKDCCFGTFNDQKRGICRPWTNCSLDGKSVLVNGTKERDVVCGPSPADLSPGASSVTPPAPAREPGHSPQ

T1 sequence (Q07011 24-186 K114N limits assumed): as the sequence (Q07011 24-186 K114E limits assumed) above, with E91N counted along it
T3 sequence (Q07011 24-186 K114T limits assumed): as the sequence (Q07011 24-186 K114E limits assumed) above, with E91T counted along it
T2 sequence (Q07011 24-186 K114R limits assumed): as the sequence (Q07011 24-186 K114E limits assumed) above, with E91R counted along it

binding result [1]: no binding
binding result [2]: no binding
binding result [3]: no binding
binding result [4]: no binding
B1: anti-CD137 mAb1 (antibody, human IgG4 S228P, kappa, V domains shown)
VH: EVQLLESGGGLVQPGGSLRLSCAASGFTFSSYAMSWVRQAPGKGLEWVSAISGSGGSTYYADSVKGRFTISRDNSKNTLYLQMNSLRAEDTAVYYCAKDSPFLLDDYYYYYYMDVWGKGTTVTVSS
VL: DIQMTQSPSSVSASVGDRVTITCRASQGISSWLAWYQQKPGKAPKLLIYAASSLQSGVPSRFSGSGSGTDFTLTISSLQPEDFATYYCQQGHLFPITFGGGTKVEIKR
notes: also called parental mAb1
